The target in assay [1] is T1, FC5DIE3IR recombinant protein.
T1 construct: Made in CHO-3E7 cells; also called FC5DIE31R; FC5DIE3R
Nature of the assay: SPR (Biacore T200), VHH flowed over immobilized FC5DIE3IR, steady state fit, 25 C. The text has this: (§1) Surface Plasmon Resonance for VHH antibodies. […] Monomeric VHH fractions were collected and protein concentration determined by measuring A280 measurement. Using a Biacore T200 instrument (GE Healthcare), approximately 500-1000 RUs of FC5DIE3IR, FC5 and an irrelevant VHH (2A3-H4) were immobilized on a CM5 Series S sensor chip (GE Healthcare) at pH 4.0 using standard amine coupling according to the manufacturer's instructions (GE Healthcare). […] Surfaces were regenerated by washing with a 120 s pulse of 10 mM glycine pH 1.5. Data were analyzed with Biacore T200 Software v 3.0 and affinities determined using steady state binding or a 1:1 binding model.
(§2) Surface Plasmon Resonance (SPR).
A general note: In SPR one partner is held on a chip, and binding of the other changes the refractive index at the surface.

Assay [2] concerns the target T2, VHH FC5.
T2 construct: put together from its FR and CDR entries; also called FC5-VHH; FC5 control
Nature of the assay: phage ELISA of immune-library colonies, phage supernatant on coated FC5DIE3IR or FC5, anti-M13-HRP, TMB. (ELISA stands for enzyme-linked immunosorbent assay.)

The next assay deals with human Nav1.7 polypeptide (human, UniProt Q15858 1-1988). In words: cell-based or functional assay.
Assay [3] deals with T1, FC5DIE3IR recombinant protein. In words: phage ELISA, phage supernatant on coated FC5DIE3IR or PBS wells, anti-M13-HRP, TMB. How it is done:
FIG. 25A Phages were rescued from individual colonies, selected from the fourth round of panning and grown overnight at 37° C. Wells of a Nunc microtiter plate were coated with FC5DIE3IR and FC5 proteins at 5 μg/ml in PBS. […] Binding was detected with TMB substrate and A450 was measured using an ELISA plate reader.
Additional rounds (up to 3) of panning were performed by coating the ELISA plate with the same proteins and using the amplified phages after each round of panning as described above. After four rounds of panning, 77 randomly picked colonies were grown and subjected to monoclonal phage ELISA screening as described previously (Arbabi-Ghahroudi et al., 2009) except that 5 μg/ml of FC5DIE3IR and FC5 VHH (the negative control) were coated onto a microtiter plate. All positive clones specifically binding to FC5DIE3IR were sequenced and unique VHH sequences were selected for sub-cloning, large-scale expression, and purification.

The next assay addresses T3, peptide #40a (40 aa) (human).
T3 construct: Custom-synthesized (Biomatik); also called pep #40a; P40a
T3 peptide: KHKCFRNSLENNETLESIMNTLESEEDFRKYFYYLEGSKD
In words: ELISA on coated peptide or FC5DIE3IR, mAb detected with HRP anti-mouse Fc, Abs 450nm. How it is done:
(§3) The peptides were custom-synthesized (Biomatik) and tested for antibody binding by ELISA. […] The wells were blocked with 1% BSA in TBS-T for 30 min and then incubated with 1:1000 dilution of anti-hNaᵥ1.7 mAb at room temperature (RT) for one hr.

In the next assay the target is T4, peptide #3 (30 aa) (human).
T4 construct: Custom-synthesized (Biomatik); also called pep #3; P3
T4 sequence (peptide, as listed by the source): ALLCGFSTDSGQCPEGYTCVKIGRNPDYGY
Described as above. How it is done:
as §3

The target in assay [4] is T1, FC5DIE3IR recombinant protein. In words: ELISA on coated FC5DIE3IR, serial dilutions of purified mAb; fit One site - Specific binding with Hill slope. How it is done:
(§4) Screening. Hybridoma supernatants were screened by ELISA to detect specific binders. To this end, 96-well half-area plates (Costar #3690) were coated with 25 μl of FC5DIE3IR or FC5-VHH or FC5-hFc-1X0 at 5 μg/ml in PBS and incubated overnight at 4° C. Microplates were washed 3 times with PBS, blocked with PBS-BSA 1%, and 25 μl of hybridoma supernatants were added and incubated at 37° C., 5% CO₂ for 2 hours. […] After 4 washes with PBS-Tween 20 0.05%, 25 μl of a 1 mg/ml pNPP substrate solution was added and further incubated for one hour at 37° C.
(§5) Evaluation of apparent affinity in ELISA. Purified antibodies were assessed for their binding activity by ELISA in a dose-dependent binding curve. Serial 1/3 dilutions of purified mAbs starting at 120 nM were applied onto wells and ELISA was performed as described above (screening section). The data were analyzed with GraphPad Prism software using one-site specific binding-with Hill slope non-linear regression curve fit model to determine Bₘₐₓ (maximum specific binding) and Kdₐₚₚ (concentration needed to achieve a half-maximum binding at equilibrium) for each mAb tested.

Assay [5] concerns the target T2, VHH FC5. Nature of the assay: ELISA, hybridoma supernatant on coated purified FC5-VHH. How it is done:
as §4

Assay [6] concerns the target T2, VHH FC5. Nature of the assay: SPR, single cycle kinetics, Fc-captured mAb, FC5 flowed, 25 C. How it is done:
HBS-EP running buffer used for SPR experiments. […] Test binding experiments of FC5 control and FC5DIE3IR involved flowing 1 μM concentrations of SEC-pure material over the mAb surface at a flow rate of 30 μl/min for 5 min. Surfaces could be regenerated using 10 mM glycine, pH 1.7, with a 120 sec pulse at 20 μl/min. All SPR experiments were evaluated with Biacore T200 Software v 3.0. […] Regeneration conditions were the same as above. Data were fit to a 1:1 binding model and analyzed using the Biacore T200 Software v3.0.

Assay [7] deals with T1, FC5DIE3IR recombinant protein. Nature of the assay: ELISA on coated FC5DIE3IR, serial dilutions of purified mAb, OD 405 nm; fit One site - Specific binding with Hill slope; apparent Kd in the unit of the concentration axis (nM), the table itself prints no unit. How it is done:
as §4, §5

In another assay the target is T5, peptide #2a (20 aa) (human).
T5 construct: Custom-synthesized (Biomatik); also called pep #2a; P2a
T5 peptide: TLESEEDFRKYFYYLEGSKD
Nature of the assay: ELISA on coated P2a, mAb at the dilutions 1:1000, 1:5000 and 1:10000, Abs 450nm. How it is done:
as §3

The target in a further assay is T6, peptide #2 (30 aa) (human).
T6 construct: Custom-synthesized (Biomatik); also called pep #2; P2
T6 peptide: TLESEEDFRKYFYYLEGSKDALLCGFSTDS
In words: ELISA on coated peptide or FC5DIE3IR, mAb detected with HRP anti-mouse Fc, Abs 450nm. How it is done:
as §3

For a further assay, the target named is T7, peptide #2b (20 aa) (human).
T7 construct: Custom-synthesized (Biomatik); also called pep #2b; P2b
T7 peptide: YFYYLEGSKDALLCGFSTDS
In words: ELISA on coated P2b, mAb at the dilutions 1:1000, 1:5000 and 1:10000, Abs 450nm. How it is done:
as §3

The target of assay [8] is T2, VHH FC5. In words: phage ELISA of immune-library colonies, phage supernatant on coated FC5DIE3IR or FC5, anti-M13-HRP, TMB. The source holds these as a separate data set.
T2 sequence (VHH, as listed by the source): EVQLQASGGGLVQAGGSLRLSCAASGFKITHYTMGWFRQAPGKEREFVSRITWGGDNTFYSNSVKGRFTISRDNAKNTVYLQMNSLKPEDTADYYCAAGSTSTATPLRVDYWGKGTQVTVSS
Assay [9] deals with T1, FC5DIE3IR recombinant protein. In words: SPR (Biacore T200), single cycle kinetics, VHH flowed over immobilized FC5DIE3IR, 25 C.
Excerpt: as §1, §2

Here are results for nine molecules from patent publication US20210206842A1 (NATIONAL RESEARCH COUNCIL OF CANADA, published 2021).

Usually koff stands for a measure of how fast the partners let go of each other. One may read the kon as the second-order rate constant of association.

B1: VHH DI-4 (VHH)
VHH: QVQLVESGGGLVQPGGSLRLSCAASGFTFSNYWMYWVRQAPGKGLERVSSIYISGGNTYYADSVKGRFTISRDNAKNTLYLQMNSLKSEDTAVYYCVKGDTFGGMDYWGKGTQVTVSS
notes: From the FC5DIE3IR llama immune library; soluble tagged monomer in SPR; not shown: cmyc and His6 tags at the C-terminus
B1: the Kd in [1] stood at 2250 nM. Further, the binding result in the assay with VHH FC5 [2] is on record as “no binding”.

B2: VHH DI-A (VHH)
VHH: QVQLVESGGGLVQPGGSLRLSCAASGRTISSFTMGWFRQAPGAEREFVAAISRSGSSTVYAGSVKGRFTISRDNAKNTVYLQMNSLKPEDTAVYYCNAVITEPLYKTDDSYWGQGTQVTVSS
notes: From the naive LAC-M library; soluble tagged monomer in protein ELISA and patch clamp; also called clone A; not shown: 6xHis and c-Myc tags on the soluble monomer
For the molecule B2, in the assay with human Nav1.7 polypeptide, the “reduction of the amplitude of the Nav1.7 currents at 1 µM” value (shortened to “reduction”) was determined as 2.73%. In [3], the binding result was “binds”.

B3: anti-hNav1.7 mAb 1H5 (antibody, V domains shown)
VH: EVKLVESGGGLVKPGGSLKLSCAASGFTFRSYAMSWVRQTPEKGLEWVASISSGGSTYYPDSVKGRFTISRDNAGNILYLQMSSLRSEDTAMYYCARGYDGYYERIWYYAMDYWGQGTSVTVSS
VL: DIVMTQSQKFMSTSVGDRVTVSCKASQNVGTIVAWYQQKPGQSPKALIYSASYRFSGVPDRFTGSGSGTDFTLTISNVQSEDLAEYFCQQYNTYPLTFGSGTKLEIK
In the case of B3, the binding result is “binds” in the assay with peptide #40a (40 aa), “binds” in the assay with peptide #3 (30 aa) and “no binding” with VHH FC5 [6]. The Bmax in assay [4] was determined as 0.583 OD405 nm. In addition, the “ELISA signal (OD 405 nm)” value with VHH FC5 [5] was found to be 0.042 OD 405 nm. Moreover, the Kd in [7] is 1.6 nM.

B4: VHH DI-H (VHH)
VHH: QVKLEESGGGLVQAGESLRLSCVNSGSTFSIYAMGWYRQAPGKQRELVAAISSVGRTNYADSVKGRFTISRAGAKNTVYLHMNNLKPEDTAVYSCITYYQNAMYFGQGTQVTVSS
notes: From the naive LAC-M library; soluble tagged monomer in protein ELISA and patch clamp; also called clone H; not shown: 6xHis and c-Myc tags on the soluble monomer
B4: the “reduction” value with human Nav1.7 polypeptide turned out to be 1.72%. In addition, the binding result in assay [3] is recorded as “binds”.

B5: VHH DI-C (VHH)
VHH: QVKLEESGGGLVQPGESLRLSCVGSGFNFRIQAMAWFRQAPGKEREFVASISGSGATTDHADSVKGRFAISKDNARDTMYLQMNNLKPEDTAVYYCYAISQHVPPYHYWGQGTQVTVSS
notes: From the naive LAC-M library; soluble tagged monomer in protein ELISA and patch clamp; also called clone C; not shown: 6xHis and c-Myc tags on the soluble monomer
Regarding B5, in the assay with human Nav1.7 polypeptide, the “reduction” value was 0.46%. Further, in assay [3], the binding result is given as “binds”.

B6: anti-hNav1.7 mAb 1B6 (antibody, V domains shown)
VH: QVQLKESGPGLVAPSQSLSITCTVSGFSLSRYNVHWVRQPPGKGLEWLGMIWGGGSTDYNSALKSRLSISKDNSKSQVFLKMNSLQTDDTAMYYCARNGANWDWFAYWGQGTLVTVSA
VL: not shown
notes: also called IB6; F236-1B6
In the case of B6, the binding result was “no binding (tested: 1:1000 dilution)” with peptide #2a (20 aa); “binds” with peptide #40a (40 aa); “binds” with peptide #2 (30 aa); “no binding” with peptide #3 (30 aa); “no binding (tested: 1:1000 dilution)” in the assay with peptide #2b (20 aa); “no binding” in the assay with VHH FC5 [6]. In addition, the Bmax in assay [4] amounted to 1.07 OD405 nm. In the assay with VHH FC5 [5], the “ELISA signal (OD 405 nm)” value was 0.028 OD 405 nm. Besides, the Kd in [7] worked out at 1.33 nM.

B7: VHH DI-E (VHH)
VHH: QVKLEESGGGLVQPGGSLRLSCAASEFTFSSSWGHWVRQAPGKGLKWVSSINSGGEGTYYADSVKGRFTISRDNGKNTLYLEMNSLKSEDTAVYYCTSASGAWGQGIQVTVSS
notes: From the naive LAC-M library; also called clone E; not shown: 6xHis and c-Myc tags on the soluble monomer
For the molecule B7, the binding result in [3] is given as “binds”.

B8: VHH DI-B (VHH)
VHH: QVKLEESGGGLVPPGESLRLTCAATGQTASVYEMAWFRRAPEKEQVYVASINWRDGDTQYHNSVKGRFIISRDNAKNTVFLQMNSLTPEDTAIYYCAARKELAGYDYWGQGTQVTVSS
notes: From the naive LAC-M library; soluble tagged monomer in protein ELISA and patch clamp; also called clone B; not shown: 6xHis and c-Myc tags on the soluble monomer
With B8, the “reduction” value with human Nav1.7 polypeptide came out at 1.73%. The binding result in assay [3] was “binds”.

B9: VHH DI-28 (VHH)
VHH: QVQLVESGGGLVQAGGSLRLSCAASGRTFSSSGMGWFRQAPGKDRELVAGISWSGDSAYYANSVAGRFTISRDNINNTVYLQMNSLKPEDTAVYYCAARQGGRNYATSPREYDYWGQGTQVTVSS
notes: as for B1
Turning to B9, the binding result with VHH FC5 [8] is recorded as “no binding”. Also, in assay [9], the Kd came out at 4.44 nM, the koff was 0.00205 s⁻¹ and the association rate constant (kon) was 461000 M⁻¹ s⁻¹.
